Target: presenilin-1 (wild-type PS1) (UniProt P49768)
Experiment: FRET or BRET

Alexa 430 donor lifetime with Cy3 acceptor on PS1 CT: 1350 psec
FRET strength: 0.3
Substance: V5-tagged ubiquilin-1 transcript variant 3 (TV3) (natural protein)

Reference: publication PMC3050036
